PMC3458707 (Chemistry & biology, 2012)
Read-outs that look alike come from different tables or passages of the source.

Columns and labels:
Experiment in all cases: native MS
[1] = molecular target: T1, Recombinant firefly luciferase (firefly, UniProt P08659 1-550 = luciferase)
[2] = molecular target: T1, Recombinant firefly luciferase; remark: listed apart in the source
[3] = molecular target: T2, mitochondrial pig heart malate dehydrogenase (pig, UniProt P00346 25-338)
T2 sequence (looked up): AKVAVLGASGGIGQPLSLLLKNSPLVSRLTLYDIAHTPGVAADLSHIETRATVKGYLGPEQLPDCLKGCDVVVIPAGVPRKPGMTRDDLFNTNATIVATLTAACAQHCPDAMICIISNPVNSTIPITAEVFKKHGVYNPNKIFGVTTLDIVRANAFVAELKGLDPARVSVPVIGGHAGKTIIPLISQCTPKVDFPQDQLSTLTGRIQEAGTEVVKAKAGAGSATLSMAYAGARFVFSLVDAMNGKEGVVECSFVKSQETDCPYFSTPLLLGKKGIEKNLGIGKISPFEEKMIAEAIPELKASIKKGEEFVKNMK

[4] = molecular target: T3, pig heart citrate synthase (pig, UniProt P00889 28-464)
T3 sequence (looked up): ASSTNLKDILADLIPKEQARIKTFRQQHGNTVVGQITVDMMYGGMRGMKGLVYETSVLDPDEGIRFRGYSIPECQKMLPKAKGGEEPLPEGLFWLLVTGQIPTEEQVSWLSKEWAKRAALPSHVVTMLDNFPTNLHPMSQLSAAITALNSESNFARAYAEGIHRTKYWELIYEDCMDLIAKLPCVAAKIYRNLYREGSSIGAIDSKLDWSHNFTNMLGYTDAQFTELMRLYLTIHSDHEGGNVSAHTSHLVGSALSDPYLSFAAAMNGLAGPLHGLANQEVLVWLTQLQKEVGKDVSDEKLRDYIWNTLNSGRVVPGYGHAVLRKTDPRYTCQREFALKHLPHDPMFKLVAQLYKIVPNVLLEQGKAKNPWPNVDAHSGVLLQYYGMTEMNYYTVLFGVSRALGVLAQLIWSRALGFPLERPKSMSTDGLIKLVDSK

[5] = molecular target: T1, Recombinant firefly luciferase; remark: listed apart in the source
[6] = molecular target: T2, mitochondrial pig heart malate …; remark: listed apart in the source
[7] = molecular target: T3, pig heart citrate synthase; remark: listed apart in the source

T1 sequence (P08659 whole entry): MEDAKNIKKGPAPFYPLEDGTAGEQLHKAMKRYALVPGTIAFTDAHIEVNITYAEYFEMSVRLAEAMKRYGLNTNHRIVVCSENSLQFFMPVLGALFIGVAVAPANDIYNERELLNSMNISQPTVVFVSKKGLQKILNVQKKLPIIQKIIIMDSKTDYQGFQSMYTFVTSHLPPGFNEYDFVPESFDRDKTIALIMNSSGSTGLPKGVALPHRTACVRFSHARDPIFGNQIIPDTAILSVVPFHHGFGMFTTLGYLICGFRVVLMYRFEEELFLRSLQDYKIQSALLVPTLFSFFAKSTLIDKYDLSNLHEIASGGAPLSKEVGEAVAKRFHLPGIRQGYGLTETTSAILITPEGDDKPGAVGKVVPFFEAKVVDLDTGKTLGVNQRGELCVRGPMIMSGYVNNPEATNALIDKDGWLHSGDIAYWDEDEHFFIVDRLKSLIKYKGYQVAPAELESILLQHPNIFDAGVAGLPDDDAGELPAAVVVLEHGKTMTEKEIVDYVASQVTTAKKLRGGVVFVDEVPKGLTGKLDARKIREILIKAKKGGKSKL

B1: HSP18.1 from Pisum sativum (pea) (natural protein, UniProt P19243 1-158, looked up)
chain: MSLIPSFFSGRRSNVFDPFSLDVWDPLKDFPFSNSSPSASFPRENPAFVSTRVDWKETPEAHVFKADLPGLKKEEVKVEVEDDRVLQISGERSVEKEDKNDEWHRVERSSGKFLRRFRLPENAKMDKVKASMENGVLTVTVPKEEIKKAEVKSIEISG
stoichiometry N [1]: 19.4 ± 0.4 subunits of HSP18.1 per Luc
ratio of complexes [Target]1:[Target]2 [2]: 1.1 [Target]2 per [Target]1
ratio of complexes [Target]1:[Target]2 [3]: 1.6 [Target]2 per [Target]1
ratio of complexes [Target]1:[Target]2 [4]: 2.9 [Target]2 per [Target]1
ratio of complexes [Target]1:[Target]2 [5]: 2.2 [Target]1 per [Target]2
ratio of complexes [Target]1:[Target]2 [6]: 1.9 [Target]2 per [Target]1
ratio of complexes [Target]1:[Target]2 [7]: 2 [Target]2 per [Target]1
